Patent publication US20050080013A1 (Pfizer, published 2005)
Non-standard residues stand in square brackets, D forms with d. No end group written: not given here. Aib = CC(C)(N)C(=O)O

T1: lecithin:cholesterol acyltransferase (LCAT), purified from human plasma (human, UniProt P04180 25-440)
T1 sequence (looked up): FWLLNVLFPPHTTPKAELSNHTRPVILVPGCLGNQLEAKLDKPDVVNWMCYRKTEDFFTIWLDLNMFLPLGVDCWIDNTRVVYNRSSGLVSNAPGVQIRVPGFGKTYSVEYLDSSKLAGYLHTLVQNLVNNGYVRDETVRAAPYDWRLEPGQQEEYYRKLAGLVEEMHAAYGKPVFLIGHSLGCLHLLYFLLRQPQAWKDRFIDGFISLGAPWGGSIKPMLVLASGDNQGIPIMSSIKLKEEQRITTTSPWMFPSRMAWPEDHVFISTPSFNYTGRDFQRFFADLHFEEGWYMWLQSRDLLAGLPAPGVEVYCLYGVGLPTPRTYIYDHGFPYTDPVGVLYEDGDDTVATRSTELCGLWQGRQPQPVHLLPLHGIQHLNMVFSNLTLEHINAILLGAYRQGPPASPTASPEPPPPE


Molecular target: T1, lecithin:cholesterol acyltransferase …
Test: cell-based or functional assay

Row | Binder | ACTIVITY (%) LCAT
1 | PVLDLFRELLNEELEALKQKLK [peptide 98] | 2%
2 | PVLDLFRELLNEGLEALKQKLK [peptide 8] | 83%
3 | PVLDEFWEKLNE[Aib]LEALKQKLK [peptide 73] | 10%
4 | PVLDLFRELGNELLEALKQKLK [peptide 9] | 83%
5 | PVLDEFRELYNE[Aib]LEALKQKLK [peptide 92] | 5%
6 | PVLDEFRELLYE[Aib]LEALKQKLK [peptide 70] | 12%
7 | PVLDLFRELLNELLE [peptide 97] | 4%
8 | PVLDEFRELLFE[Aib]LEALKQKLK [peptide 76] | 9%
9 | KLKQKLAELLENLLERFLDLVP [peptide 99] | 2%
10 | PVLDEFREKLNEELEALKQKLK [peptide 75] | 10%
11 | PVLDKFRELLNE[Aib]LEALKQKLK [peptide 88] | 7%
12 | PVLDEFRKKLNE[Aib]LEALKQKLK [peptide 69] | 13%
13 | [dP][dL][dL][dE][dL][dL][dK][dE][dL][dL][dQ][dE][dL][dL][dE][dA][dL][dK][dQ][dK][dL][dK] [peptide 87] | 7%
14 | PVLDEFREKLNEALEALKQKLK [peptide 94] | 5%
15 | PVLDEFREKLNE[Aib]LKALKQKLK [peptide 93] | 5%
16 | PLDLFRELLNELLEALKQKLK [peptide 85] | 7%
17 | VLDLFRELLNELLEALKQKLK [peptide 67] | 14%
18 | PVLELFERLLDELLNALQKKLK [peptide 86] | 7%
19 | PVLDLFRNLLEELLEALQKKLK [peptide 66] | 15%

Other lines, results leading:

Row | ACTIVITY (%) LCAT | Binder
20 | 14% | PVLDEFRELLKE[Aib]LEALKQKLK [peptide 68]
21 | 6% | PVLDEFRELLNE[Aib]LEALKQKLK [peptide 91]
22 | 5% | [dP][dV][dL][dD][dL][dF][dR][dE][dL][dL][dN][dE][Aib][dL][dE][dA][dL][dK][dQ][dK][dL][dK] [peptide 96]
23 | 10% | PVLDKFREKLNE[Aib]LEALKQKLK [peptide 74]
24 | 5% | PVLDLFRELLNL[Aib]LEALKQKLK [peptide 95]
25 | 83% | PVLDLFKELLNELLEALKQKLK [peptide 7]
26 | 9% | PVLDEFRELLNELLEALKQKLK [peptide 79]
27 | 6% | PVLDEFREKLNE[Aib]LWALKQKLK [peptide 89]
28 | 7% | PVLDEFREKLNELLEALKQKLK [peptide 84]
29 | 15% | PWLDEFREKLNE[Aib]LEALKQKLK [peptide 64]
30 | 9% | PVLDLFERLLNELLEALQKKLK [peptide 80]
31 | 11% | PVLDEFREKLNEL[Aib]EALKQKLK [peptide 71]
32 | 9% | PVLDEFREKLNK[Aib]LEALKQKLK [peptide 77]
33 | 15% | VLDEFREKLNE[Aib]LEALKQKLK [peptide 65]
34 | 2% | PVLDLFRELLNL[Aib]LEALKEKLK [peptide 102]
35 | 6% | DEFREKLNE[Aib]LEALKQKLK [peptide 90]
36 | 2% | PVLDLFRELLNW[Aib]LEALKQKLK [peptide 101]
37 | 2% | [dP][dV][dL][dD][dL][dF][dR][dE][dL][dL][dN][dE][dL][dL][dE][dA][dL][dK][dQ][dK][dL][dK] [peptide 100]
38 | 11% | PVLDLFRELLNE[Aib]LWALKQKLK [peptide 72]
39 | 8% | LDEFREKLNE[Aib]LEALKQKLK [peptide 82]
